Reference: publication PMC5262456 (Science Advances, 2016)
Positions count from the first letter of the chain named. Names and notes keep the numbering of the source.

B1: Spy (ATP-independent periplasmic chaperone), wild type (natural protein, UniProt P77754 24-161, looked up)
chain: ADTTTAAPADAKPMMHHKGKFGPHQDMMFKDLNLTDAQKQQIREIMKGQRDQMKRPPLEERRAMHDIIASDTFDKVKAEAQIAKMEEQRKANMLAHMETQNKIYNILTPEQKKQFNANFEKRLTERPAAKGKMPATAE
B2: Im7 L18A L19A L37A (Im7U) (natural protein, UniProt Q03708 1-87, looked up)
chain: MELKNSISDYTEAEFVQAAKEIEKENVAATDDVLDVALEHFVKITEHPDGTDLIYYPSDNRDDSPEGIVKEIKEWRAANGKPGFKQG
B3: Im7, wild type, full length (natural protein, UniProt Q03708 1-87, looked up)
chain: B2 chain with A18L, A19L, A37L
B4: Im7U T11C with MTSL spin label (natural protein, UniProt Q03708 1-87, looked up)
chain: B2 chain with T11C
modifications: MTSL spin label on cysteine 11
B5: Im7U T30C with MTSL spin label (natural protein, UniProt Q03708 1-87, looked up)
chain: B2 chain with T30C
modifications: MTSL spin label on cysteine 30

Experiments:
AUC = molecular target: the molecule itself; assay: AUC
[1] = molecular target: B1; assay: ITC
[2] = molecular target: T1, Skp (ATP-independent periplasmic chaperone) (UniProt P0AEU7 21-161); assay: NMR titration
T1 sequence (looked up): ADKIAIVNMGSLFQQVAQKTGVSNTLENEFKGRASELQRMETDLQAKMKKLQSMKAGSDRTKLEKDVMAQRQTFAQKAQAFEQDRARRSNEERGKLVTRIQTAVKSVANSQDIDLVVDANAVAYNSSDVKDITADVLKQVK

[3] = molecular target: T2, SurA (ATP-independent periplasmic chaperone) (UniProt P0ABZ6 21-428); assay: NMR titration
T2 sequence (looked up): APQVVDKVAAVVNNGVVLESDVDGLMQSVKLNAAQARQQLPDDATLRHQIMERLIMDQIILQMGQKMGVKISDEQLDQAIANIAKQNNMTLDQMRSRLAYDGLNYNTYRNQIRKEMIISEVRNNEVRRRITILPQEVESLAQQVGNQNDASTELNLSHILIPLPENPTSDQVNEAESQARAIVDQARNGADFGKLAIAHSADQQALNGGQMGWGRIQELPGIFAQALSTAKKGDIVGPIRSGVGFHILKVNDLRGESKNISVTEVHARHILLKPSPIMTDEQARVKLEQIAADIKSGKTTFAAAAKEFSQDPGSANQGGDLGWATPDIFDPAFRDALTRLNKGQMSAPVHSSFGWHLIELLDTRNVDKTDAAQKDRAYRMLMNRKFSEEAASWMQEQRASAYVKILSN

[4] = molecular target: T3, Spy M85C with MTSL spin label (UniProt P77754 24-161, M85C, MTSL spin label on cysteine 85); assay: intermolecular paramagnetic relaxation enhancement
T3 sequence (looked up): B1 chain with M85C

[5] = molecular target: T1, Skp (ATP-independent periplasmic …)
[6] = molecular target: T2, SurA (ATP-independent periplasmic …)
[7] = molecular target: T4, Spy M53C with MTSL spin label (UniProt P77754 24-161, M53C, MTSL spin label on cysteine 53); assay: intermolecular paramagnetic relaxation enhancement
T4 sequence (looked up): B1 chain with M53C

[8] = molecular target: T5, Spy T99C with MTSL spin label (UniProt P77754 24-161, T99C, MTSL spin label on cysteine 99); assay: intermolecular paramagnetic relaxation enhancement
T5 sequence (looked up): B1 chain with T99C

[9] = molecular target: B1; assay: SPR
[10] = molecular target: B1; assay: intramolecular paramagnetic relaxation enhancement

B1
stoichiometry N (AUC): 2

B2
Kd [1]: 0.327 µM
dH [1]: 8.9 ± 0.5 kcal/mol
binding result [2]: binds
binding result [3]: binds
binding result [4]: binds

B3
Kd [5]: 66 µM
Kd [6]: 50 µM
binding result [7]: binds
binding result [4]: binds
binding result [8]: binds
Kd [9]: 20.3 ± 3.2 µM

B4
binding result [10]: binds

B5
binding result [10]: binds
